Data reported in ChEMBL document CHEMBL1240325, “Non-heme dioxygenases: cellular sensors and regulators jelly rolled into one?” (Nat Chem Biol, 2007).

What was measured:
[1] = substrate: O=C(O)CCC(=O)C(=O)O; assay: (§1) Activity of HIF prolyl hydroxylase-3
[2] = substrate: O=C1O[C@H]([C@@H](O)CO)C(O)=C1O; assay: as §1
[3] = substrate: O=O; assay: as §1
[4] = substrate: O=C(O)CCC(=O)C(=O)O; assay: (§2) Activity of FIH-1
[5] = substrate: O=C1O[C@H]([C@@H](O)CO)C(O)=C1O; assay: as §2
[6] = substrate: O=O; assay: as §2
[7] = substrate: O=C(O)CCC(=O)C(=O)O; assay: (§3) Activity of HIF prolyl hydroxylase-2
[8] = substrate: O=C1O[C@H]([C@@H](O)CO)C(O)=C1O; assay: as §3
[9] = substrate: O=O; assay: as §3
[10] = substrate: O=C(O)CCC(=O)C(=O)O; assay: (§4) Activity of collagen prolyl 4 hydroxylase-1
[11] = substrate: O=C1O[C@H]([C@@H](O)CO)C(O)=C1O; assay: as §4
[12] = substrate: O=O; assay: as §4

B1: Prolyl hydroxylase EGLN3 (Homo sapiens), Q9H6Z9 (protein)
chain: MPLGHIMRLDLEKIALEYIVPCLHEVGFCYLDNFLGEVVGDCVLERVKQLHCTGALRDGQLAGPRAGVSKRHLRGDQITWIGGNEEGCEAISFLLSLIDRLVLYCGSRLGKYYVKERSKAMVACYPGNGTGYVRHVDNPNGDGRCITCIYYLNKNWDAKLHGGILRIFPEGKSFIADVEPIFDRLLFFWSDRRNPHEVQPSYATRYAMTVWYFDAEERAEAKKKFRNLTRKTESALTED
[1]
  Km: 55 µM
[2]
  Km: 140 µM
[3]
  Km: 230 µM

B2: Hypoxia-inducible factor 1-alpha inhibitor (Homo sapiens), Q9NWT6 (protein)
chain: MAATAAEAVASGSGEPREEAGALGPAWDESQLRSYSFPTRPIPRLSQSDPRAEELIENEEPVVLTDTNLVYPALKWDLEYLQENIGNGDFSVYSASTHKFLYYDEKKMANFQNFKPRSNREEMKFHEFVEKLQDIQQRGGEERLYLQQTLNDTVGRKIVMDFLGFNWNWINKQQGKRGWGQLTSNLLLIGMEGNVTPAHYDEQQNFFAQIKGYKRCILFPPDQFECLYPYPVHHPCDRQSQVDFDNPDYERFPNFQNVVGYETVVGPGDVLYIPMYWWHHIESLLNGGITITVNFWYKGAPTPKRIEYPLKAHQKVAIMRNIEKMLGEALGNPQEVGPLLNTMIKGRYN
[4]
  Km: 25 µM
[5]
  Km: 260 µM
[6]
  Km: 90 µM

B3: Egl nine homolog 1 (Homo sapiens), Q9GZT9 (protein)
chain: MANDSGGPGGPSPSERDRQYCELCGKMENLLRCSRCRSSFYCCKEHQRQDWKKHKLVCQGSEGALGHGVGPHQHSGPAPPAAVPPPRAGAREPRKAAARRDNASGDAAKGKVKAKPPADPAAAASPCRAAAGGQGSAVAAEAEPGKEEPPARSSLFQEKANLYPPSNTPGDALSPGGGLRPNGQTKPLPALKLALEYIVPCMNKHGICVVDDFLGKETGQQIGDEVRALHDTGKFTDGQLVSQKSDSSKDIRGDKITWIEGKEPGCETIGLLMSSMDDLIRHCNGKLGSYKINGRTKAMVACYPGNGTGYVRHVDNPNGDGRCVTCIYYLNKDWDAKVSGGILRIFPEGKAQFADIEPKFDRLLFFWSDRRNPHEVQPAYATRYAITVWYFDADERARAKVKYLTGEKGVRVELNKPSDSVGKDVF
[7]
  Km: 2 µM
[8]
  Km: 180 µM
[9]
  Km: 100 µM

B4: Prolyl 4-hydroxylase subunit alpha-1 (Homo sapiens), P13674 (protein)
chain: MIWYILIIGILLPQSLAHPGFFTSIGQMTDLIHTEKDLVTSLKDYIKAEEDKLEQIKKWAEKLDRLTSTATKDPEGFVGHPVNAFKLMKRLNTEWSELENLVLKDMSDGFISNLTIQRQYFPNDEDQVGAAKALLRLQDTYNLDTDTISKGNLPGVKHKSFLTAEDCFELGKVAYTEADYYHTELWMEQALRQLDEGEISTIDKVSVLDYLSYAVYQQGDLDKALLLTKKLLELDPEHQRANGNLKYFEYIMAKEKDVNKSASDDQSDQKTTPKKKGVAVDYLPERQKYEMLCRGEGIKMTPRRQKKLFCRYHDGNRNPKFILAPAKQEDEWDKPRIIRFHDIISDAEIEIVKDLAKPRLRRATISNPITGDLETVHYRISKSAWLSGYENPVVSRINMRIQDLTGLDVSTAEELQVANYGVGGQYEPHFDFARKDEPDAFKELGTGNRIATWLFYMSDVSAGGATVFPEVGASVWPKKGTAVFWYNLFASGEGDYSTRHAACPVLVGNKWVSNKWLHERGQEFRRPCTLSELE
[10]
  Km: 20 µM
[11]
  Km: 300 µM
[12]
  Km: 40 µM
